# Reference: patent EP4818204A1 (Nanjing Leads Biolabs Co., Ltd., dated 2026)
# Where two headings read alike, the source gives them in different places.
# T1: human GDNF protein (human, UniProt P39905 78-211)
# T1 construct: Bought
# T1 sequence (looked up): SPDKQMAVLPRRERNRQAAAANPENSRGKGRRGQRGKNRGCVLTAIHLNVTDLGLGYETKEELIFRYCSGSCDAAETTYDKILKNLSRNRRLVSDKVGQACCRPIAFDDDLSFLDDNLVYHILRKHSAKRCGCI
# T2: Human GDF15 protein (human, UniProt Q99988 197-308)
# T2 construct: Natural GDF15 is said to be a disulfide-linked homodimer; also called Human-GDF15-his
# T2 sequence: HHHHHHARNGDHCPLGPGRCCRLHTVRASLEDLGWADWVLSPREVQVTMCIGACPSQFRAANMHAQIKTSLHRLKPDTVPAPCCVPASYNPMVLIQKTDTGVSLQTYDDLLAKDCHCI
# T3: Cynomolgus monkey GDF15 protein (cynomolgus monkey, UniProt G7PWZ3 193-308)
# T3 construct: Bought protein (Kactus Biosystems GDF-CE115); also called Cynomolgus GDF15 protein; Cynomolgus-GDF15
# T3 sequence: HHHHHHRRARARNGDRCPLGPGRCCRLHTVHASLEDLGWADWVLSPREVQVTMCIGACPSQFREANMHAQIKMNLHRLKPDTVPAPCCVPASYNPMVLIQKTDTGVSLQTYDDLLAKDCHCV
# T4: Mouse GDF15 protein (mouse, UniProt Q9Z0J7 189-303)
# T4 sequence: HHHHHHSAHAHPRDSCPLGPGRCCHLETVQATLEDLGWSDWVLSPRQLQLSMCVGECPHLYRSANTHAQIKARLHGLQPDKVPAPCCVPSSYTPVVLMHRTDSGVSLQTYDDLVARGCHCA
# T5: human GDF1 protein (human, UniProt P27539 254-372, limits assumed)
# T5 construct: Bought
# T5 sequence (looked up): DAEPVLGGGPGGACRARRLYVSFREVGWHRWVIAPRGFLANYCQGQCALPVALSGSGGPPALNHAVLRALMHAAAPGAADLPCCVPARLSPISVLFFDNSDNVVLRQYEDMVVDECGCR
# T6: human GDF2 protein (human, UniProt Q9UK05 320-429)
# T6 construct: Bought
# T6 sequence (looked up): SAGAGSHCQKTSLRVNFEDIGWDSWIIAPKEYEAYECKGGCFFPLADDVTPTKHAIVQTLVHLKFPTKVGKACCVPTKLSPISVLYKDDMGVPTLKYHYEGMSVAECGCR
# T7: human BMP4 protein (human, UniProt P12644 293-408)
# T7 construct: Bought
# T7 sequence (looked up): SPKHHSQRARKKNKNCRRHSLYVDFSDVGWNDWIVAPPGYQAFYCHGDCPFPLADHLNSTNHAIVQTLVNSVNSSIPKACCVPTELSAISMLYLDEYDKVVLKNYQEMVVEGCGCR
# T8: human GDF11 protein (human, UniProt O95390 299-407)
# T8 construct: Bought
# T8 sequence (looked up): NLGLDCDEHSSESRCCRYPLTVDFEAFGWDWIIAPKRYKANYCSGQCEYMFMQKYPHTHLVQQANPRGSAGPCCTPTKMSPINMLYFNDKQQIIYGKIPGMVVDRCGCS
# T9: human GFRα1 protein (human, UniProt P56159 25-429, limits assumed)
# T9 construct: Bought
# T9 sequence (looked up): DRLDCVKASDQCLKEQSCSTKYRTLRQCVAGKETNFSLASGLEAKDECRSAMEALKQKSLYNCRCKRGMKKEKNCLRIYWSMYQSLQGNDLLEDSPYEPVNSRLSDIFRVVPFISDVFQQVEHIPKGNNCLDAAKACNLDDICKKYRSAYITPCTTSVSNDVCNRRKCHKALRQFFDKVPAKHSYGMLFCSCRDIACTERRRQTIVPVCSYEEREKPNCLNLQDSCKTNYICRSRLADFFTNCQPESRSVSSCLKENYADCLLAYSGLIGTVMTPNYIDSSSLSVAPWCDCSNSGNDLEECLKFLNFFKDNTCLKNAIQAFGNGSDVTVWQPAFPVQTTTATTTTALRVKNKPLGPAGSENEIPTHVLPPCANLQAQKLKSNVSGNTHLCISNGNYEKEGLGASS
# T10: human Activin A protein (human, UniProt P08476 311-426)
# T10 construct: Bought; Activin A is by nature a dimer of inhibin beta A chains
# T10 sequence (looked up): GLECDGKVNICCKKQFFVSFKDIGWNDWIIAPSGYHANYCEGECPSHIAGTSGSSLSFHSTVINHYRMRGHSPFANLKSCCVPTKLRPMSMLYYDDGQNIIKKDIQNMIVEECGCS
# What was measured:
# human GDNF protein [1] = target: T1, human GDNF protein; test: ELISA, coated protein
# human GDNF protein [2] = target: T1, human GDNF protein; test: ELISA, coated protein, antibody at 4 µg/mL
# Human GDF15 protein [3] = target: T2, Human GDF15 protein; test: BLI (Fortebio Octet), antibody on AHC sensor, GDF15 as analyte, 1:1 model
# [4] = target: T3, Cynomolgus monkey GDF15 protein; test: as above
# Mouse GDF15 protein = target: T4, Mouse GDF15 protein; test: as above
# human GDF1 protein = target: T5, human GDF1 protein; test: ELISA, coated protein, antibody at 4 µg/mL
# human GDF2 protein = target: T6, human GDF2 protein; test: ELISA, coated protein, antibody at 4 µg/mL
# human BMP4 protein = target: T7, human BMP4 protein; test: ELISA, coated protein, antibody at 4 µg/mL
# human GDF11 protein = target: T8, human GDF11 protein; test: ELISA, coated protein, antibody at 4 µg/mL
# human GDNF protein [5] = target: T1, human GDNF protein; test: ELISA, coated protein, antibody at 4 µg/mL; remark: listed apart in the source
# human TGFβ1 protein = target: T11, human TGFβ1 protein (human, UniProt P01137 279-390); test: ELISA, coated protein, antibody at 4 µg/mL
# T11 construct: Bought
# human GFRα1 protein = target: T9, human GFRα1 protein; test: ELISA, coated protein, antibody at 4 µg/mL
# human BMP2 protein = target: T12, human BMP2 protein (human, UniProt P12643 283-396); test: ELISA, coated protein, antibody at 4 µg/mL
# T12 construct: Bought
# human Activin A protein = target: T10, human Activin A protein; test: ELISA, coated protein, antibody at 4 µg/mL
# Human GDF15 protein [6] = target: T2, Human GDF15 protein; test: ELISA, coated protein, antibody at 4 µg/mL
# human GDNF protein [7] = target: T1, human GDNF protein; test: ELISA, coated protein, antibody at 4 µg/mL; remark: listed apart in the source
# T11 sequence (P01137 279-390 limits assumed): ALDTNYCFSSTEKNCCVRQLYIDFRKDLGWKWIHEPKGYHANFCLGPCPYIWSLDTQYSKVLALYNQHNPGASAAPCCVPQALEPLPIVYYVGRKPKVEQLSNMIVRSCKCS
# T12 sequence (P12643 283-396 limits assumed): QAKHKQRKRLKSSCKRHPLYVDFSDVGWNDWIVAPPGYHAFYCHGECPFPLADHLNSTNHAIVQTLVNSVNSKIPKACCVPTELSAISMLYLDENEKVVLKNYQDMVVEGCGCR
binding result (human GDNF protein [1]),OD value (human GDNF protein [2]) [OD 450 nm-620 nm],Kd (Human GDF15 protein [3]) [pM],koff (Human GDF15 protein [3]) [s⁻¹],kon (Human GDF15 protein [3]) [M⁻¹ s⁻¹],Kd [4] [pM],koff [4] [s⁻¹],kon [4] [M⁻¹ s⁻¹],Kd (Mouse GDF15 protein) [pM],koff (Mouse GDF15 protein) [s⁻¹],kon (Mouse GDF15 protein) [M⁻¹ s⁻¹],further results,Binder
no binding (tested: 4 µg/mL),0.105,51.5,4.87e-05,946000,231,6.13e-05,265000,10600,0.00116,110000,,"Hu21H6D2 (antibody, human IgG1, kappa, V domains shown, Humanized form of murine 21H6D2; human IgG1 constant region with L234A, L235A, G237A and kappa light chain constant region; also called hu21H6D2-IgG1-mut(L234A,L235A,G237A)) VH: QVQLVQSGAEVKKPGASVKVSCKASGYTFTGYIMNWVRQAPGQRLEWMGDIDPYYGDAKYNQKFKGKVTITVDKSASTAYMELSSLRSEDTAVYYCARRDYDHGSFAYWGQGTLVTVSS VL: EIVLTQSPDFQSVTPKEKVTITCSASSSVNYMHWYQQKPDQSPKRLIYDTSKLASGVPSRFSGSGSGTDYTLTINSLEAEDAATYYCQQWSSNPPTFGQGTKLEIKR"
no binding (tested: 4 µg/mL),0.0531,26.4,2.35e-05,887000,312,8.24e-05,265000,14900,0.00241,162000,OD value (human GDF1 protein): 0.201 OD 450 nm-620 nm; OD value (human GDF2 protein): 0.0616 OD 450 nm-620 nm; OD value (human BMP4 protein): 0.0587 OD 450 nm-620 nm; OD value (human GDF11 protein): 0.0735 OD 450 nm-620 nm; OD value (human GDNF protein [5]): 0.241 OD 450 nm-620 nm; OD value (human TGFβ1 protein): 0.103 OD 450 nm-620 nm; OD value (human GFRα1 protein): 0.11 OD 450 nm-620 nm; OD value (human BMP2 protein): 0.0764 OD 450 nm-620 nm; OD value (human Activin A protein): 0.0595 OD 450 nm-620 nm; OD value (Human GDF15 protein [6]): 2.47 OD 450 nm-620 nm,"Hu19C4C7 (antibody, human IgG1, kappa, Humanized form of murine 19C4C7; human IgG1 constant region with L234A, L235A, G237A and kappa light chain constant region; also called hu19C4C7-IgG1-mut(L234A,L235A,G237A)) heavy: QVQLVQSGAEVKKPGSSVKVSCKASGYSFTGYIMNWVRQAPGQSLEWMGDIDPYYGGPNYNQKFQGRVTITVDKSTSTAYMELSSLRSEDTAVYYCSRRDYNYGSFAYWGQGTLVTVSSASTKGPSVFPLAPSSKSTSGGTAALGCLVKDYFPEPVTVSWNSGALTSGVHTFPAVLQSSGLYSLSSVVTVPSSSLGTQTYICNVNHKPSNTKVDKKVEPKSCDKTHTCPPCPAPEAAGAPSVFLFPPKPKDTLMISRTPEVTCVVVDVSHEDPEVKFNWYVDGVEVHNAKTKPREEQYNSTYRVVSVLTVLHQDWLNGKEYKCKVSNKALPAPIEKTISKAKGQPREPQVYTLPPSREEMTKNQVSLTCLVKGFYPSDIAVEWESNGQPENNYKTTPPVLDSDGSFFLYSKLTVDKSRWQQGNVFSCSVMHEALHNHYTQKSLSLSPGK light: QIVLTQSPATLSLSPGERATLSCRASSSVNYMHWYQQKPGQAPRPLIYATSNLATGIPARFSGSGSGTDYTLTISSLEPEDFAVYYCQQWSDNPPTFGQGTKLEIKRTVAAPSVFIFPPSDEQLKSGTASVVCLLNNFYPREAKVQWKVDNALQSGNSQESVTEQDSKDSTYSLSSTLTLSKADYEKHKVYACEVTHQGLSSPVTKSFNRGEC"
,,< 1,< 1e-07,573000,< 1,< 1e-07,205000,1250,6.58e-05,52500,OD value (OD 450 nm-620 nm) (human GDNF protein [7]): 0.273,"HuVHH43-3 (Fc fusion, also called huVHH43-IgG1-mut(L234A,L235A,G237A); VHH humanized anti-GDF15 antibody) heavy: QLQLVESGGGLVQPGGSLRLSCAASGHTYGMGWFRQAPGKAREIVSAISRSGSSTYYADSVKGRFTISRDNSKNTLYLQMNSLRAEDTAVYICGASTSALVPTTTGMYAYWGQGTRVTVSSEPKSSDKTHTCPPCPAPEAAGAPSVFLFPPKPKDTLMISRTPEVTCVVVDVSHEDPEVKFNWYVDGVEVHNAKTKPREEQYNSTYRVVSVLTVLHQDWLNGKEYKCKVSNKALPAPIEKTISKAKGQPREPQVYTLPPSREEMTKNQVSLTCLVKGFYPSDIAVEWESNGQPENNYKTTPPVLDSDGSFFLYSKLTVDKSRWQQGNVFSCSVMHEALHNHYTQKSLSLSPGK"
